Source: publication PMC5923319 (Toxins, 2018)

Key:
[1] = target: HcA1 (receptor binding domain of BoNT/A1), HA- and His6-tagged, for binding studies (Clostridium botulinum, UniProt A2I2U2 876-1296); experiment: pull-down; details: both partners purified
[2] = target: HcA2 (receptor binding domain of BoNT/A2), HA- and His6-tagged, for binding studies (Clostridium botulinum A2 Kyoto-F, UniProt Q45894 874-1296); experiment: […]; Hepes buffer (50 mM Hepes pH 7.5, 150 mM NaCl); […]; details: both partners purified

Row | Binder | binding result [1] | binding result [2]
1 | GST-fused recombinant human SV2A-L4 (domain or fragment, UniProt Q7L0J3 468-596, looked up, also called non-glycosylated SV2A) FPDMIRHLQAVDYASRTKVFPGERVEHVTFNFTLENQIHRGGQYFNDKFIGLRLKSVSFEDSLFEECYFEDVTSSNTFFRNCTFINTVFYNTDLFEYKFVNSRLINSTFLHNKEGCPLDVTGTGEGAYM | binds | –
2 | GST-fused recombinant human SV2B-L4 (domain or fragment, UniProt Q7L1I2 410-536, looked up, also called non-glycosylated SV2B) WFPDMIRYFQDEEYKSKMKVFFGEHVYGATINFTMENQIHQHGKLVNDKFTRMYFKHVLFEDTFFDECYFEDVTSTDTYFKNCTIESTIFYNTDLYEHKFINCRFINSTFLEQKEGCHMDLEQDNDF | binds | –
3 | GST-fused recombinant human SV2C-L4 (domain or fragment, UniProt Q496J9 454-580, looked up, also called non-glycosylated SV2C) FPDVIKPLQSDEYALLTRNVERDKYANFTINFTMENQIHTGMEYDNGRFIGVKFKSVTFKDSVFKSCTFEDVTSVNTYFKNCTFIDTVFDNTDFEPYKFIDSEFKNCSFFHNKTGCQITFDDDYSAY | binds | binds
